The results in this text go back to paper PMC7498065, “Isolation of antigen-specific, disulphide-rich knob domain peptides from bovine antibodies” (PLoS Biology, 2020).

Where two headings read alike, the source gives them in different places.

The target of experiment [1] is C5 (Homo sapiens, UniProt P01031). In words: Steady state FRET binding assay, AF647-labelled PGT121 knob fusion proteins binding to C5-Tb (KD app). The following applies: C5-Tb 1 nM.
In experiment [2] the target is Complement component C5 (Homo sapiens, UniProt P01031). In words: Biacore SPR single-cycle kinetics of PGT121 Fab-knob domain fusion proteins binding to C5. As to conditions: for Mean kon: C5 amine-coupled on CM5 chip, analyte 1.37 nM-1 µM in HBS-EP; for Mean Stoichiometric ratio at 1 µM: SPR, analyte 1 µM. The procedure:
For PGT121 fusion proteins, flow cells were activated using a minimal immobilisation protocol: EDC/NHS was mixed at 1:2 ratio (flow rate, 10 μL/min; contact time, 30 s). C5, at 1 μg/mL in pH 4.5 sodium-acetate buffer, was immobilized on flow cell 2 only (flow rate, 10 μL/min; contact time, 420 s). Finally, ethanolamine was applied to both flow cells (flow rate, 10 μL/min; contact time, 420 s).
For knob domain peptides, flow cells were activated using a standard immobilisation protocol: EDC/NHS was mixed at 1:1 ratio (flow rate, 10 μL/min; contact time, 30 s). C5, at 1 μg/mL in pH 4.5 sodium-acetate buffer, was immobilized on flow cell 2 only (flow rate, 10 μL/min; contact time, 420 s). Finally, ethanolamine was applied to both flow cells (flow rate, 10 μL/min; contact time, 420 s). […] For the PGT121-K149 fusion protein and K149 knob domain, the same immobilisation protocols were used but with a 750 ng/mL solution of C5, instead of 1 μg/mL.
One-micromolar stock solutions of the analytes (PGT121 knob domain fusion proteins and free knob domain peptides) were prepared in HBS-EP buffer. A series of six 3-fold dilutions of each stock solution was prepared in the same buffer. The result was 7 solutions for each analyte, at concentrations ranging from 1 μM down to 1.37 nM. A high flow rate of 40 μL/min was used, with a contact time of 230 s and a dissociation time of 1,800 s for knob domain peptides and 10,000 s for PGT121 knob domain fusion proteins. For the PGT121-K149 fusion protein and K149 knob domain, the flow rate was further increased to 100 μL/min. Binding to the reference surface was subtracted, and the data were fitted to a single-site binding model using Biacore evaluation software. Data were inspected for evidence of mass transport limitation using the flow-rate–independent component of the mass transfer constant (tc).

Setting [3] is: 2 hour incubation, experiment n2, read-out: KD app.
The mark [4] stands for this setting: 2 hour incubation, experiment n3, read-out: KD app.
Where [5] appears, read: 2 hour incubation, geomean of n=3, read-out: Geomean KD app.
The mark [6] stands for this setting: 24 hour incubation, experiment n2, read-out: KD app.
[7] abbreviates: 24 hour incubation, experiment n3, read-out: KD app.
Setting [8] is: 24 hour incubation, geomean of n=3, read-out: Geomean KD app.

Sequence of Complement component C5 (P01031 19-673 limits assumed): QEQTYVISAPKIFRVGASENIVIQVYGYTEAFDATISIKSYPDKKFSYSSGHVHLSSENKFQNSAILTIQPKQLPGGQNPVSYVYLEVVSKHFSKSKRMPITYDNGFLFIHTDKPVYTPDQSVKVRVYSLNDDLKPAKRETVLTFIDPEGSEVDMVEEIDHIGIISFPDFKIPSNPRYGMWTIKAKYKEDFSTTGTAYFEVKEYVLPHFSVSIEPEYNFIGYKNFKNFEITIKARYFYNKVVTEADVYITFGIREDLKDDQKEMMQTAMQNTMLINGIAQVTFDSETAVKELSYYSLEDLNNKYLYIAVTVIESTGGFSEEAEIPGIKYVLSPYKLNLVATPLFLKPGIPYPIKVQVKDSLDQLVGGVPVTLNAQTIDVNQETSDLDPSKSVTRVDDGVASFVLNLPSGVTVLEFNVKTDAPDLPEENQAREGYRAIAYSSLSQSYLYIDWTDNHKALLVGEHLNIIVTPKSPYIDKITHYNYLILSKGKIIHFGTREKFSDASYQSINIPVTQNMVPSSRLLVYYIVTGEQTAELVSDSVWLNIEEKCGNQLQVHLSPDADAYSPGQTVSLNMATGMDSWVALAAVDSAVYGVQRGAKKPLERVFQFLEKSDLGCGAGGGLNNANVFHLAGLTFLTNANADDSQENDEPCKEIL
Sequence of Complement component C5 (P01031 678-1676 limits assumed): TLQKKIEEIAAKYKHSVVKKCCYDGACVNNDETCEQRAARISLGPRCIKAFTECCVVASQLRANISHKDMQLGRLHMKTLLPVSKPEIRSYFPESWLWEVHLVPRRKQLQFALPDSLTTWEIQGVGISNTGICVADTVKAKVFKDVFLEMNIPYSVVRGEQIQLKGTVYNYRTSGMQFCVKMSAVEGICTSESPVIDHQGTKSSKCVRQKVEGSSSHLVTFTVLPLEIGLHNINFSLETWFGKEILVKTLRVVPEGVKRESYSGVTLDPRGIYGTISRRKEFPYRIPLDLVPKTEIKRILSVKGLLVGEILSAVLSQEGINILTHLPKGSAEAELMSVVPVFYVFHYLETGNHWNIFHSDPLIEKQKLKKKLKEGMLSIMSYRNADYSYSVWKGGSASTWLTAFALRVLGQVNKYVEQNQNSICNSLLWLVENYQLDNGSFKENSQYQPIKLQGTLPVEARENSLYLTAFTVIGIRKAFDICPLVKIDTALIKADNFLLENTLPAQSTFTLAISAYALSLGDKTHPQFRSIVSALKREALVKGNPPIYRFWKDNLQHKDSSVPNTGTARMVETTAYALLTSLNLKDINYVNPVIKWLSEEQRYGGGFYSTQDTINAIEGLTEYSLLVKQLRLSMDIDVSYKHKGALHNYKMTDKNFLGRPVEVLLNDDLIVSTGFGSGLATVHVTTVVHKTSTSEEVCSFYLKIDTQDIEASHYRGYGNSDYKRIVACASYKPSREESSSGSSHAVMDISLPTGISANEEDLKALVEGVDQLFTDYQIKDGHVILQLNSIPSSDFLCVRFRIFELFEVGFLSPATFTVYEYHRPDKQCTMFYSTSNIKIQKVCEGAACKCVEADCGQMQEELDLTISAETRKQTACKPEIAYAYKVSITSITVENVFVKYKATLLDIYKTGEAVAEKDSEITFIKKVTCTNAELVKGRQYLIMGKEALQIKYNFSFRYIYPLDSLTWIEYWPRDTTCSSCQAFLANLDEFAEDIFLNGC
Sequence of C5 (P01031 19-673 limits assumed): as the sequence (P01031 19-673 limits assumed) above
Sequence of C5 (P01031 678-1676 limits assumed): as the sequence (P01031 678-1676 limits assumed) above

B1: PGT121-K136: human Fab PGT121 with the K136 knob domain inserted into CDRH3, flanked by TEV protease sites (antibody)
VH: QMQLQESGPGLVKPSETLSLTCSVSGASISDSYWSWIRRSPGKGLEWIGYVHKSGDTNYSPSLKSRVNLSLDTSKNQVSLSLVAATAADSGKYYCARTLHGRRIYGSENLYFQGTCPDNYREVDGCDPYDCCLTTWCTNSYCTRYIENLYFQGSEWFTYFYMDVWGNGTQVTVSS
VL: QSVLTQPPDISVAPGETARISCGEKSLGSRAVQWYQHRAGQAPSLIIYNNQDRPSGIPERFSGSPDSPFGTTATLTITSVEAGDEADYYCHIWDSRVPTKWVFGGGTTLTVL
In the case of B1, the Kd stood at 46.3 nM in experiment [1] (setting [3]); 115 nM in experiment [1] (setting [4]); 73 nM in experiment [1] (setting [5]); 23.4 nM in experiment [1] (setting [6]); 58.1 nM in experiment [1] (setting [7]); 39.8 nM in experiment [1] (setting [8]). For the same molecule, the Kd was < 2.19 nM in experiment [2] (SPR single-cycle kinetics, 1:1 model, mean of n=3, read-out: Mean KD); < 1.82 nM in experiment [2] (occasion n=1, read-out: KD); < 2.84 nM in experiment [2] (occasion n=2, read-out: KD); < 1.89 nM in experiment [2] (occasion n=3, read-out: KD). In addition, the Mean kon in experiment [2] (1:1 model, mean of n=3) turned out to be 4760 M⁻¹ s⁻¹. In addition, the “Mean Stoichiometric ratio at 1 µM” value in experiment [2] (mean of n=3) was found to be 0.8. Moreover, in experiment [2] (exceeded the limit for koff determination by Biacore), the “off rate (koff)” value is < 1e-05 s⁻¹. The Rmax stood at 38.9 RU in experiment [2] (occasion n=1), 38.4 RU in experiment [2] (occasion n=2) and 40.4 RU in experiment [2] (occasion n=3). Further, the “Stoichiometric ratio at 1 µM” value in experiment [2] (occasion n=1) was 0.82; in experiment [2] (occasion n=2), 0.8; in experiment [2] (occasion n=3), 0.9. In addition, the kon came out at 5480 M⁻¹ s⁻¹ in experiment [2] (occasion n=1), 3520 M⁻¹ s⁻¹ in experiment [2] (occasion n=2) and 5280 M⁻¹ s⁻¹ in experiment [2] (occasion n=3).

B2: PGT121-K149: human Fab PGT121 with the K149 knob domain inserted into CDRH3, flanked by TEV protease sites (antibody)
VH: QMQLQESGPGLVKPSETLSLTCSVSGASISDSYWSWIRRSPGKGLEWIGYVHKSGDTNYSPSLKSRVNLSLDTSKNQVSLSLVAATAADSGKYYCARTLHGRRIYGSENLYFQGSCPDGFSYRSWDDFCCPMVGRCLAPRNGSENLYFQGSEWFTYFYMDVWGNGTQVTVSS
VL: QSVLTQPPDISVAPGETARISCGEKSLGSRAVQWYQHRAGQAPSLIIYNNQDRPSGIPERFSGSPDSPFGTTATLTITSVEAGDEADYYCHIWDSRVPTKWVFGGGTTLTVL
Consider B2, for which the Kd in experiment [1] (2 hour incubation, experiment n1, read-out: KD app) is 34.9 nM; in experiment [1] (setting [3]), 57.6 nM; in experiment [1] (setting [4]) it was 30.1 nM; in experiment [1] (setting [5]) it was 39.3 nM; in experiment [1] (24 hour incubation, experiment n1, read-out: KD app), 127 nM; in experiment [1] (setting [6]), 90.6 nM. Besides, the Kd stood at 24.9 nM in experiment [1] (setting [7]); 65.9 nM in experiment [1] (setting [8]); 283 nM in experiment [2] (occasion n=1, read-out: KD); 425 nM in experiment [2] (occasion n=2, read-out: KD); 842 nM in experiment [2] (occasion n=3, read-out: KD). The same molecule displayed a Mean kon in experiment [2] (1:1 model, mean of n=3) of 3750 M⁻¹ s⁻¹. This molecule also had a Mean koff in experiment [2] (SPR single-cycle kinetics, 1:1 model, mean of n=3, koff capped at 1.00E-05 s^-1) of 0.00164 s⁻¹. In addition, the “Mean Stoichiometric ratio at 1 µM” value in experiment [2] (mean of n=3) was determined as 0.5. For the same molecule, the Rmax in experiment [2] (occasion n=1) was found to be 13.00 RU; in experiment [2] (occasion n=2) it was 10.00 RU; in experiment [2] (occasion n=3), 10.00 RU. In addition, the “Stoichiometric ratio at 1 µM” value in experiment [2] (occasion n=1) came out at 0.5; in experiment [2] (occasion n=2), 0.5; in experiment [2] (occasion n=3), 0.4. Further, the koff in experiment [2] (occasion n=1) turned out to be 0.00149 s⁻¹; in experiment [2] (occasion n=2), 0.00162 s⁻¹; in experiment [2] (occasion n=3) it was 0.00181 s⁻¹. Also, the results for the kon in experiment [2] (occasion n=1), in experiment [2] (occasion n=2) and in experiment [2] (occasion n=3) were 5270 M⁻¹ s⁻¹, 3840 M⁻¹ s⁻¹ and 2150 M⁻¹ s⁻¹, respectively.
